Source: patent US20240165282A1, “CONFORMATIONAL CONSTRAINED SOMATOSTATIN RECEPTOR 3 PEPTIDE LIGANDS AND THEIR CONJUGATES AND USES THEREOF” (STARGET PHARMA LTD., priority 2021, published 2024)
*1 amine or outer side, *2 acyl side, *3 side chain or, on linkers, in order; H or OH if unused. Bridges are numbered along the chain shown (N, C = ends). [ ]: non-standard residue; d: D form. The star is where a group is joined. DOTA = O=C(O)CN1CCN(CC(=O)O)CCN(CC(=O)*)CCN(CC(=O)O)CC1; N(2-mercaptoethyl)Gly = O=C(CN(CCS[*:3])[*:1])[*:2]

Key:
Assay in all cases: cell-based or functional assay
[1] = biological target: FPRL1 (human) (UniProt P25090)
[2] = biological target: EDNRA (human) (UniProt P25101)
[3] = biological target: CCR2 (human) (UniProt P41597)
[4] = biological target: OPRD1 (human) (UniProt P41143)
[5] = biological target: NPSR1b (human) (UniProt Q6W5P4)
[6] = biological target: CXCR6 (human) (UniProt O00574)
[7] = biological target: BDKRB1 (human) (UniProt P46663)
[8] = biological target: CXCR1 (human) (UniProt P25024)
[9] = biological target: LHCGR (human) (UniProt P22888)
[10] = biological target: P2RY4 (human) (UniProt P51582)
[11] = biological target: MCHR1 (human) (UniProt Q99705)
[12] = biological target: CXCR4 (human) (UniProt P61073)
[13] = biological target: CXCR3 (human) (UniProt P49682)
[14] = biological target: CNR2 (human) (UniProt P34972)
[15] = biological target: HCRTR1 (human) (UniProt O43613)
[16] = biological target: HTR2C (human) (UniProt P28335)
[17] = biological target: GHSR (human) (UniProt Q92847)
[18] = biological target: C5aR1 (human) (UniProt P21730)
[19] = biological target: DRD2S (human) (UniProt P14416)
[20] = biological target: CRTH2 (human) (UniProt Q9Y5Y4)
[21] = biological target: CCR4 (human) (UniProt P51679)
[22] = biological target: (CR)L-RAMP3 (human) (UniProt Q16602)
[23] = biological target: HRH3 (human) (UniProt Q9Y5N1)
[24] = biological target: GPR35 (human) (UniProt Q9HC97)
[25] = biological target: CHRM2 (human) (UniProt P08172)
[26] = biological target: CCR1 (human) (UniProt P32246)
[27] = biological target: C3AR1 (human) (UniProt Q16581)
[28] = biological target: OXTR (human) (UniProt P30559)
[29] = biological target: AVPR2 (human) (UniProt P30518)
[30] = biological target: DRD3 (human) (UniProt P35462)
[31] = biological target: CCR6 (human) (UniProt P51684)
[32] = biological target: PRLHR (human) (UniProt P49683)
[33] = biological target: P2RY12 (human) (UniProt Q9H244)
[34] = biological target: UTR2 (human) (UniProt Q9UKP6)
[35] = biological target: EDG5 (human) (UniProt O95136)
[36] = biological target: CXCR5 (human) (UniProt P32302)
[37] = biological target: HRH4 (human) (UniProt Q9H3N8)
[38] = biological target: CCR9 (human) (UniProt P51686)
[39] = biological target: GPR119 (human) (UniProt Q8TDV5)
[40] = biological target: CMKLR1 (human) (UniProt Q99788)
[41] = biological target: EDG1 (human) (UniProt P21453)
[42] = biological target: F2R (human) (UniProt P25116)
[43] = biological target: EDG4 (human) (UniProt Q9HBW0)
[44] = biological target: HTR5A (human) (UniProt P47898)
[45] = biological target: TBXA2R (human) (UniProt P21731)
[46] = biological target: MCHR2 (human) (UniProt Q969V1)
[47] = biological target: NPBWR2 (human) (UniProt P48146)
[48] = biological target: FSHR (human) (UniProt P23945)
[49] = biological target: HTR1A (human) (UniProt P08908)
[50] = biological target: CHRM1 (human) (UniProt P11229)
[51] = biological target: PROKR1 (human) (UniProt Q8TCW9)
[52] = biological target: GPR92 (human) (UniProt Q9H1C0)
[53] = biological target: CHRM5 (human) (UniProt P08912)
[54] = biological target: LTB4R (human) (UniProt Q15722)
[55] = biological target: CCR7 (human) (UniProt P32248)
[56] = biological target: EDG3 (human) (UniProt Q99500)
[57] = biological target: TACR3 (human) (UniProt P29371)
[58] = biological target: PTGFR (human) (UniProt P43088)
[59] = biological target: GPR103 (human) (UniProt Q96P65)

Chain of CHRM5 (human) (P08912 whole entry): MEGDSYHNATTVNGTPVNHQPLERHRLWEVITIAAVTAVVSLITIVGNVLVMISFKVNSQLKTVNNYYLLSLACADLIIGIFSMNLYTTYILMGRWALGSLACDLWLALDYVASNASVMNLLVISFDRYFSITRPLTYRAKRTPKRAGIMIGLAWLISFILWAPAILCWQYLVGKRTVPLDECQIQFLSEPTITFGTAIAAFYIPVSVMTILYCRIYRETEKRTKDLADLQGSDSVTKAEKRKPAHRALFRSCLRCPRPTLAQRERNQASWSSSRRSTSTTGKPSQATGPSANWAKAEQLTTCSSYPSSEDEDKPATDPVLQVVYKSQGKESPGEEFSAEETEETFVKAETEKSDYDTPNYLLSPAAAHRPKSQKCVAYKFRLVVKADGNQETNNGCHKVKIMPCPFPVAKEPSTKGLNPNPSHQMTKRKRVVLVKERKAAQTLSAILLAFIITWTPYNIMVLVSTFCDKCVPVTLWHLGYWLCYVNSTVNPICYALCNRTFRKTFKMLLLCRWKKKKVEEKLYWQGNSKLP
Chain of GPR92 (human) (Q9H1C0 whole entry): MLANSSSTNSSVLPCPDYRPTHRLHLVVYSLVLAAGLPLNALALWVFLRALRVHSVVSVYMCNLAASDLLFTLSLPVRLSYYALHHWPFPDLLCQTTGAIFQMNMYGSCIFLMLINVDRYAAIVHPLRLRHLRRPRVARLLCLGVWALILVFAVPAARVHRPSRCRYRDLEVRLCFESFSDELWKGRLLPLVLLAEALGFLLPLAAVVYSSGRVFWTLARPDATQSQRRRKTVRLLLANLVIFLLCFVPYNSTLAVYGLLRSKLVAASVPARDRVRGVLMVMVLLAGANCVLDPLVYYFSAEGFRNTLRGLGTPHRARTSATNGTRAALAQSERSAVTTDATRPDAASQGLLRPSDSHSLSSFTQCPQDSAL
Chain of HTR2C (human) (P28335 33-458): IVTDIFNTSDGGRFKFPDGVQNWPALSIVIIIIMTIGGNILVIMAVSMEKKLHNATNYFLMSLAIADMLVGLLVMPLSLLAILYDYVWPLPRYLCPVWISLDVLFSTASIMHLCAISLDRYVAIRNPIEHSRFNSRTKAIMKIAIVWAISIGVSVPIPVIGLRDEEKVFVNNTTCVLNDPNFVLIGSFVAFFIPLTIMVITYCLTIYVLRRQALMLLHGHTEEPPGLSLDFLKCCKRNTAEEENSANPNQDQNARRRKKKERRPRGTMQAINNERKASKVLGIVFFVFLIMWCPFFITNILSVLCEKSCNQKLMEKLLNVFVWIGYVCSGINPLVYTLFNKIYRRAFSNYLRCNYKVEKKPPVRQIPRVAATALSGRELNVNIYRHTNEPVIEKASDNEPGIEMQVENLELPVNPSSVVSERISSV
Chain of LHCGR (human) (P22888 27-699): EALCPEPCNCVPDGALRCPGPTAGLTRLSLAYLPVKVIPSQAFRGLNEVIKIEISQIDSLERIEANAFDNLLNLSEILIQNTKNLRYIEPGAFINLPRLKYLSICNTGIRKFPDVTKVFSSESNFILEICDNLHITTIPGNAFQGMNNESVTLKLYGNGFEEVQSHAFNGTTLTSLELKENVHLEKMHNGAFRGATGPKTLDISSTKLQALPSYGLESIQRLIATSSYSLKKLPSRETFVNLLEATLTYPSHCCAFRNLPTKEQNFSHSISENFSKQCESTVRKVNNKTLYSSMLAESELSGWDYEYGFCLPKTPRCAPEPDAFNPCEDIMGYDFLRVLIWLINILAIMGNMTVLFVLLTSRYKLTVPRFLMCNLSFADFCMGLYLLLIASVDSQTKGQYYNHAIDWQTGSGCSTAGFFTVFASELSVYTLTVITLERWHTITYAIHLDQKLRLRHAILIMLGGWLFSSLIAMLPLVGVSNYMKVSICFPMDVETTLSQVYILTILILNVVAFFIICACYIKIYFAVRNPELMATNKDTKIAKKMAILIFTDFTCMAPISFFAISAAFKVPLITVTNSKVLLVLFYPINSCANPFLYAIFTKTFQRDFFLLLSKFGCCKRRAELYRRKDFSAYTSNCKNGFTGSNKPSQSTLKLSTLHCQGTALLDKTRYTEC
Chain of DRD2S (human) (P14416 other isoform, or with tags, fused parts or gaps): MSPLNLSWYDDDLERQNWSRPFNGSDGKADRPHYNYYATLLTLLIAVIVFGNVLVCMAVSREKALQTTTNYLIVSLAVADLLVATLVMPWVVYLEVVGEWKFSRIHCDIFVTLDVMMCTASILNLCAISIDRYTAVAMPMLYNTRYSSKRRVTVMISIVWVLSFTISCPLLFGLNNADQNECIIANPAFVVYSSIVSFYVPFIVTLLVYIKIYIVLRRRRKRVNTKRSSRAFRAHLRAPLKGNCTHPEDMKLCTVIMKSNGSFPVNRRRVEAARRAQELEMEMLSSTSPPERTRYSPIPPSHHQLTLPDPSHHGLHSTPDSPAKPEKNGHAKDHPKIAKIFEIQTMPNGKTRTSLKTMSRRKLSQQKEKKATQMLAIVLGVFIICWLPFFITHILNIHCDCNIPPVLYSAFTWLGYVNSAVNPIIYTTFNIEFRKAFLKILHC
Chain of CCR1 (human) (P32246 whole entry): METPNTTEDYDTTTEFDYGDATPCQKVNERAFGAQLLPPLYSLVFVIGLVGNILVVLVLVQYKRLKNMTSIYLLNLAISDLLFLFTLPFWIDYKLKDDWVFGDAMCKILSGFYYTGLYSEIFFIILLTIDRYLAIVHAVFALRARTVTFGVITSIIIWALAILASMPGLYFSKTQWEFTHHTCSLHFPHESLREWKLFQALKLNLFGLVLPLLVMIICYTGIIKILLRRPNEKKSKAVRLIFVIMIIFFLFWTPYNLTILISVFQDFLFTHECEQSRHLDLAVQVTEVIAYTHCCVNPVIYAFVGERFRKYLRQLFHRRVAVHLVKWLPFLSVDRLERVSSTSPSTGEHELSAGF
Chain of GPR119 (human) (Q8TDV5 whole entry): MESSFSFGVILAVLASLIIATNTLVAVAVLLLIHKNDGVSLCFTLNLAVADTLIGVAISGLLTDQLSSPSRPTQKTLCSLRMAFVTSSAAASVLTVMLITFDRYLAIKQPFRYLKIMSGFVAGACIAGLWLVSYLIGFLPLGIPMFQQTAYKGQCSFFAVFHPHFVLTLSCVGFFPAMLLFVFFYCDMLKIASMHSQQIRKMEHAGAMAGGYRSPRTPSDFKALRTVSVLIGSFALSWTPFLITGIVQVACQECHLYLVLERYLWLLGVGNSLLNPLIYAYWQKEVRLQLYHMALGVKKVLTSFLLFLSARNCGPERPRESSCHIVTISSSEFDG
Chain of EDG4 (human) (Q9HBW0 whole entry): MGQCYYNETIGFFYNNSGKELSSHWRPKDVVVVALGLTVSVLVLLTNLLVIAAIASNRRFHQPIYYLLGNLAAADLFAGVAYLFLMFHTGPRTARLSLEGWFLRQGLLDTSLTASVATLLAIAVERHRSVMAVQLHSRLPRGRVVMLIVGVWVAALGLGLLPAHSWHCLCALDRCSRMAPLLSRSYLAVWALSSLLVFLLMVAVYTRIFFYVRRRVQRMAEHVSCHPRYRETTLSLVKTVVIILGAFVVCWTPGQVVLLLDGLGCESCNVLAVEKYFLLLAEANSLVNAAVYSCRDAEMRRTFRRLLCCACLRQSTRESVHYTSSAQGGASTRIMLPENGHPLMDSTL
Chain of CCR2 (human) (P41597 whole entry): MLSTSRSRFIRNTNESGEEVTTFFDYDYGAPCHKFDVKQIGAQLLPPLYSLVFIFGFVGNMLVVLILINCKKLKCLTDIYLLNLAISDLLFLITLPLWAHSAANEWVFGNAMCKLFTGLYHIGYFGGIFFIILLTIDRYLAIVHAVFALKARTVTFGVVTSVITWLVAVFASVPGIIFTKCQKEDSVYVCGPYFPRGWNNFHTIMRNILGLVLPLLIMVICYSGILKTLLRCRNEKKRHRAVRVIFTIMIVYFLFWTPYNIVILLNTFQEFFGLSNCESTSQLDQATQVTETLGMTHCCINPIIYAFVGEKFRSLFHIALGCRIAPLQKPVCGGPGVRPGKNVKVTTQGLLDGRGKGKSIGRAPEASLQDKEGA
Chain of P2RY12 (human) (Q9H244 whole entry, one chain of several): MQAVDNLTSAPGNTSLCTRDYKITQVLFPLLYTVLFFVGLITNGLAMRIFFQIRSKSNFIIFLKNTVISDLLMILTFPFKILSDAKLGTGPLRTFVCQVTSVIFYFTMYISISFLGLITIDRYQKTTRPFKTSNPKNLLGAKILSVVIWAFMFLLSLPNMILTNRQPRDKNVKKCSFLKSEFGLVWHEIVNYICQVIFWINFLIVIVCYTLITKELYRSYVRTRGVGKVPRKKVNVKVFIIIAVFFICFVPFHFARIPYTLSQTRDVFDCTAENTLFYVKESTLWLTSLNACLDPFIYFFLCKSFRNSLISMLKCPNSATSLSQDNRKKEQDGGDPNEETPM
Chain of NPBWR2 (human) (P48146 whole entry): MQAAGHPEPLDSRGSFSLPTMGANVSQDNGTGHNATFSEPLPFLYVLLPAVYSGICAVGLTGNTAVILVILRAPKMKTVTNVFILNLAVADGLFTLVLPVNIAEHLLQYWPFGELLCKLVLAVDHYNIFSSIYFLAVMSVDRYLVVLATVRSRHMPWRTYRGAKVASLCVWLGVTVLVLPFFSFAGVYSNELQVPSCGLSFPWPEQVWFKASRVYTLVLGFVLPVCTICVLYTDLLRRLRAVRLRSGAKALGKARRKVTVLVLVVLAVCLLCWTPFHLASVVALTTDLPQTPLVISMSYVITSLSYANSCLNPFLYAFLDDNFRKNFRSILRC
Chain of MCHR1 (human) (Q99705 whole entry): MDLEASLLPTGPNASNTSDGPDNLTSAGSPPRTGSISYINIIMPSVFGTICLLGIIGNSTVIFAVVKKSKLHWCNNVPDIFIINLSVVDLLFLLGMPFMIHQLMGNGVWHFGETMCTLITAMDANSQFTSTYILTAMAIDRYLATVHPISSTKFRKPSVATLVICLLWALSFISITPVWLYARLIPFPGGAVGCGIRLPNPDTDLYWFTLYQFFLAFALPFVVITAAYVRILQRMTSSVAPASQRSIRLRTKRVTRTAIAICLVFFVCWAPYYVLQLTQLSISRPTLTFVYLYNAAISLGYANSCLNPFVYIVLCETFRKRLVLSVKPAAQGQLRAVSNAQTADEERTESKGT

Binder: {DOTA}-[dF]RCF[dW]KTF[N(2-mercaptoethyl)Gly]-NH2 (disulfide 3-9; also: Ga complex of DOTA) [SEQ ID NO: 4]
- % Activity (agonist mode, 1 µM) [1]: 0%
- % Activity (agonist mode, 1 µM) [2]: -1%
- % Activity (agonist mode, 1 µM) [3]: 1%
- % Activity (agonist mode, 1 µM) [4]: -1%
- % Activity (agonist mode, 1 µM) [5]: -1%
- % Activity (agonist mode, 1 µM) [6]: 1%
- % Activity (agonist mode, 1 µM) [7]: -5%
- % Activity (agonist mode, 1 µM) [8]: 0%
- % Activity (agonist mode, 1 µM) [9]: 1%
- % Activity (agonist mode, 1 µM) [10]: 1%
- % Activity (agonist mode, 1 µM) [11]: -1%
- % Activity (agonist mode, 1 µM) [12]: 3%
- % Activity (agonist mode, 1 µM) [13]: -1%
- % Activity (agonist mode, 1 µM) [14]: 2%
- % Activity (agonist mode, 1 µM) [15]: 0%
- % Activity (agonist mode, 1 µM) [16]: 0%
- % Activity (agonist mode, 1 µM) [17]: -1%
- % Activity (agonist mode, 1 µM) [18]: 0%
- % Activity (agonist mode, 1 µM) [19]: 0%
- % Activity (agonist mode, 1 µM) [20]: -1%
- % Activity (agonist mode, 1 µM) [21]: 0%
- % Activity (agonist mode, 1 µM) [22]: 0%
- % Activity (agonist mode, 1 µM) [23]: -2%
- % Activity (agonist mode, 1 µM) [24]: 1%
- % Activity (agonist mode, 1 µM) [25]: 0%
- % Activity (agonist mode, 1 µM) [26]: 3%
- % Activity (agonist mode, 1 µM) [27]: 0%
- % Activity (agonist mode, 1 µM) [28]: 0%
- % Activity (agonist mode, 1 µM) [29]: 0%
- % Activity (agonist mode, 1 µM) [30]: 9%
- % Activity (agonist mode, 1 µM) [31]: 0%
- % Activity (agonist mode, 1 µM) [32]: 1%
- % Activity (agonist mode, 1 µM) [33]: 1%
- % Activity (agonist mode, 1 µM) [34]: 0%
- % Activity (agonist mode, 1 µM) [35]: -2%
- % Activity (agonist mode, 1 µM) [36]: 0%
- % Activity (agonist mode, 1 µM) [37]: -2%
- % Activity (agonist mode, 1 µM) [38]: 0%
- % Activity (agonist mode, 1 µM) [39]: 19%
- % Activity (agonist mode, 1 µM) [40]: 0%
- % Activity (agonist mode, 1 µM) [41]: 0%
- % Activity (agonist mode, 1 µM) [42]: 1%
- % Activity (agonist mode, 1 µM) [43]: 6%
- % Activity (agonist mode, 1 µM) [44]: 0%
- % Activity (agonist mode, 1 µM) [45]: 1%
- % Activity (agonist mode, 1 µM) [46]: 1%
- % Activity (agonist mode, 1 µM) [47]: 1%
- % Activity (agonist mode, 1 µM) [48]: 3%
- % Activity (agonist mode, 1 µM) [49]: 0%
- % Activity (agonist mode, 1 µM) [50]: -1%
- % Activity (agonist mode, 1 µM) [51]: 0%
- % Activity (agonist mode, 1 µM) [52]: 1%
- % Activity (agonist mode, 1 µM) [53]: 5%
- % Activity (agonist mode, 1 µM) [54]: -1%
- % Activity (agonist mode, 1 µM) [55]: 1%
- % Activity (agonist mode, 1 µM) [56]: -1%
- % Activity (agonist mode, 1 µM) [57]: 1%
- % Activity (agonist mode, 1 µM) [58]: 0%
- % Activity (agonist mode, 1 µM) [59]: 4%
